From article PMC3159454

Target: Elk-1 ETS domain (Elk-ets), recombinant
Assay: SEC

stoichiometry N: 2
Substance: Elk-1 ETS domain (Elk-ets), recombinant (domain or fragment)
